Source: article PMC9298306, “Controlling Enzymatic Activity by Modulating the Oligomerization State via Chemical Rescue and Optical Control” (Chembiochem, 2021)
Changes are numbered by the printed parent chain. In names and notes the source's numbering stands. Values belong to the molecule of their own block, whether it stands above or below them.

Tests used:
[1] = tested on: T1, RGGGPS (AncGGGPS2_N4_IF_n12); assay: coupled pyrophosphate/phosphate detection at […] nm (PPase, PNPase, xanthine oxidase), G1P-dependent; format: biochemical; settings: 11 μM GGPP, 10 mM MgCl2, pH 8.0, 40 °C, 0.2 % Tween80
T1 construct: His-tagged, from E. coli; hexamer

mtGGGPS = molecular target: T2, mtGGGPS (Methanothermobacter thermautotrophicus, UniProt O26652, K143C/C191A, form not given); assay: as above; format: biochemical; settings: 11 μM GGPP, 10 mM MgCl2, pH 8.0, 40 °C, 0.2 % Tween80; without bromoethylamine (−Am), dimer
T2 construct: gene MTH_552; His-tagged, expressed in E. coli BL21-Gold(DE3); hexamer (trimer of dimers); C194A/K146C variant is a dimer unless rescued

[2] = molecular target: geranylgeranylglyceryl phosphate synthase from Methanothermobacter thermautotrophicus, wild type (Methanothermobacter thermautotrophicus) (UniProt O26652); assay: SEC-MALS; analytical SEC (Superdex 200 Increase 10/300 GL) in combination with static light scattering (right-angle light scattering and refractive index detectors); 40 μM subunit concentration; 50 mM potassium phosphate, pH 7.5, 300 mM KCl; room temperature (approx. 23 °C)
[3] = molecular target: mtGGGPS_(C194A) (Methanothermobacter thermautotrophicus) (UniProt O26652); assay: as above
[4] = molecular target: mtGGGPS_(C194A)_K146C^+Am (Methanothermobacter thermautotrophicus) (UniProt O26652)
[5] = molecular target: mtGGGPS_(C194A)_K146C^+Am (Methanothermobacter thermautotrophicus) (UniProt O26652); assay: SEC-MALS; analytical SEC (Superdex 200 Increase 10/300 GL) in combination with static light scattering (right-angle light scattering and refractive index detectors); 40 μM subunit concentration; 50 mM potassium phosphate, pH 7.5, 300 mM KCl; room temperature (approx. 23 °C)
purified protein = substrate: O=P(O)(O)OC[C@@H](O)CO; assay: purified protein; format: biochemical, Methanothermobacter thermautotrophicus; settings: 11 μM GGPP, 10 mM MgCl2, pH 8.0, 40 °C, 0.2 % Tween80

T2 sequence (O26652 whole entry K143C/C191A, form open): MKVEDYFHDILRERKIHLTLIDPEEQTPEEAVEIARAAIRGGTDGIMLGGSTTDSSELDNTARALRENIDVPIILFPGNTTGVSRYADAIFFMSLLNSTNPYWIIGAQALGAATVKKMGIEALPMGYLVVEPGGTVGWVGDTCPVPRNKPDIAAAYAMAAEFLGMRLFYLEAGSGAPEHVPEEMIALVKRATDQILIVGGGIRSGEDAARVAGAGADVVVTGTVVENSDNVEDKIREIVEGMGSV

Molecule: geranylgeranylglyceryl phosphate synthase from Methanothermobacter thermautotrophicus, wild type (from UniProt O26652 1-245) (enzyme)
stoichiometry N [2]: 6

Molecule: mtGGGPS_(C194A)_K146C^+Am (from UniProt O26652 1-245) (enzyme)
kcat/KM, photometric assay of the GGGPS reaction at 40 °C [4]: 192000 M⁻¹ s⁻¹
percent in the hexameric state [5]: 100%
stoichiometry N [5]: 6

B1: mtGGGPS (Methanothermobacter thermautotrophicus str. Delta H) (protein)
chain: MKVEDYFHDILRERKIHLTLIDPEEQTPEEAVEIARAAIRGGTDGIMLGGSTTDSSELDNTARALRENIDVPIILFPGNTTGVSRYADAIFFMSLLNSTNPYWIIGAQALGAATVKKMGIEALPMGYLVVEPGGTVGWVGDTKPVPRNKPDIAAAYAMAAEFLGMRLFYLEAGSGAPEHVPEEMIALVKRCTDQILIVGGGIRSGEDAARVAGAGADVVVTGTVVENSDNVEDKIREIVEGMGSV
notes: His-tagged, expressed in E. coli BL21-Gold(DE3); hexamer (trimer of dimers); C194A/K146C variant is a dimer unless rescued
Km (purified protein): 2.0 ± 0.3 µM
kcat (purified protein): 0.23 ± 0.005 s⁻¹
kcat/Km (purified protein): 115000 ± 17000 M⁻¹ s⁻¹

B2: mtGGGPS (Methanothermobacter thermautotrophicus str. Delta H; C191A) (protein)
chain: B1 chain with C191A
notes: as for B1
Km (purified protein): 3.3 ± 0.6 µM
kcat (purified protein): 0.29 ± 0.01 s⁻¹
kcat/Km (purified protein): 88000 ± 18000 M⁻¹ s⁻¹

Second part, the molecule after the results:

Km [1]: 14.2 ± 2.2 µM
Km (mtGGGPS): 63.4 ± 5.8 µM
Molecule: O=P(O)(O)OC[C@@H](O)CO [G1P, glycerol 1‐phosphate]

stoichiometry N [3]: 6
Molecule: mtGGGPS_(C194A) (from UniProt O26652 1-245) (enzyme)

kcat/KM, photometric assay of the GGGPS reaction at 40 °C [4]: 550 M⁻¹ s⁻¹
stoichiometry N [5]: 2
Molecule: mtGGGPS_(C194A)_K146C^−Am (from UniProt O26652 1-245) (enzyme)
